# B1: GpH7-A5/GpH7-B3 variant S298_09D/GpL16-k0 (antibody, human IgG1, kappa)
# heavy 1: not shown
# heavy 2: not shown
# light: DIVMTQSPLSLPVTPGEPASISCQASESLVHSNRNTYLHWYLQKPGQSPQLLIYKVSNRFSGVPDRFSGSGSGTDFTLKISRVEAEDVGVYYCSQNTHVPPTFGQGTKVEIERTVAAPSVFIFPPSDEQLKSGTASVVCLLNNFYPREAKVQWKVDNALQSGNSQESVTEQDSKDSTYSLSSTLTLSKADYEKHKVYACEVTHQGLSSPVTKSFNRGEC
# notes: He Ab; copies: 1 + 1 + 2
# B2: GpH7-A5/GpH7-B3 variant S298_11K/GpL16-k0 (antibody, human IgG1, kappa)
# heavy 1: not shown
# heavy 2: not shown
# light: B1 light
# notes: He Ab; copies: 1 + 1 + 2
# B3: GpH7-A5/GpH7-B3 variant Y296_10E/GpL16-k0 (antibody, human IgG1, kappa)
# heavy 1: not shown
# heavy 2: not shown
# light: B1 light
# notes: He Ab; copies: 1 + 1 + 2
# B4: GpH7-A5/GpH7-B3 variant Y296_13S/GpL16-k0 (antibody, human IgG1, kappa)
# heavy 1: not shown
# heavy 2: not shown
# light: B1 light
# notes: He Ab; copies: 1 + 1 + 2
# B5: GpH7-A5/GpH7-B3 variant V266_08L/GpL16-k0 (antibody, human IgG1, kappa)
# heavy 1: not shown
# heavy 2: not shown
# light: B1 light
# notes: He Ab; copies: 1 + 1 + 2
# B6: GpH7-A5/GpH7-B3 variant Y296_19Q/GpL16-k0 (antibody, human IgG1, kappa)
# heavy 1: not shown
# heavy 2: not shown
# light: B1 light
# notes: He Ab; copies: 1 + 1 + 2
# B7: GpH7-A5/GpH7-B3 variant Y300_13S/GpL16-k0 (antibody, human IgG1, kappa)
# heavy 1: not shown
# heavy 2: not shown
# light: B1 light
# notes: He Ab; copies: 1 + 1 + 2
# B8: GpH7-A5/GpH7-B3 variant S298_14T/GpL16-k0 (antibody, human IgG1, kappa)
# heavy 1: not shown
# heavy 2: not shown
# light: B1 light
# notes: He Ab; copies: 1 + 1 + 2
# B9: GpH7-A5/GpH7-B3 variant S324_09D/GpL16-k0 (antibody, human IgG1, kappa)
# heavy 1: not shown
# heavy 2: not shown
# light: B1 light
# notes: He Ab; copies: 1 + 1 + 2
# B10: GpH7-A5/GpH7-B3 variant S298_19Q/GpL16-k0 (antibody, human IgG1, kappa)
# heavy 1: not shown
# heavy 2: not shown
# light: B1 light
# notes: He Ab; copies: 1 + 1 + 2
# B11: GpH7-A5/GpH7-B3 variant S324_04F/GpL16-k0 (antibody, human IgG1, kappa)
# heavy 1: not shown
# heavy 2: not shown
# light: B1 light
# notes: He Ab; copies: 1 + 1 + 2
# B12: GpH7-A5/GpH7-B3 variant S324_07I/GpL16-k0 (antibody, human IgG1, kappa)
# heavy 1: not shown
# heavy 2: not shown
# light: B1 light
# notes: He Ab; copies: 1 + 1 + 2
# B13: GpH7-A5/GpH7-B3 variant S324_11K/GpL16-k0 (antibody, human IgG1, kappa)
# heavy 1: not shown
# heavy 2: not shown
# light: B1 light
# notes: He Ab; copies: 1 + 1 + 2
# B14: GpH7-A5/GpH7-B3 variant Y300_07I/GpL16-k0 (antibody, human IgG1, kappa)
# heavy 1: not shown
# heavy 2: not shown
# light: B1 light
# notes: He Ab; copies: 1 + 1 + 2
# B15: GpH7-A5/GpH7-B3 variant V266_07I/GpL16-k0 (antibody, human IgG1, kappa)
# heavy 1: not shown
# heavy 2: not shown
# light: B1 light
# notes: He Ab; copies: 1 + 1 + 2
# B16: GpH7-A5/GpH7-B3 variant Y296_18N/GpL16-k0 (antibody, human IgG1, kappa)
# heavy 1: not shown
# heavy 2: not shown
# light: B1 light
# notes: He Ab; copies: 1 + 1 + 2
# B17: GpH7-A5/GpH7-B3 variant Y296_04F/GpL16-k0 (antibody, human IgG1, kappa)
# heavy 1: not shown
# heavy 2: not shown
# light: B1 light
# notes: He Ab; copies: 1 + 1 + 2
# B18: GpH7-A5/GpH7-B3 variant S324_19Q/GpL16-k0 (antibody, human IgG1, kappa)
# heavy 1: not shown
# heavy 2: not shown
# light: B1 light
# notes: He Ab; copies: 1 + 1 + 2
# B19: GpH7-A5/GpH7-B3 variant V266_02A/GpL16-k0 (antibody, human IgG1, kappa)
# heavy 1: not shown
# heavy 2: not shown
# light: B1 light
# notes: He Ab; copies: 1 + 1 + 2
# B20: GpH7-A5/GpH7-B3 variant S324_01G/GpL16-k0 (antibody, human IgG1, kappa)
# heavy 1: not shown
# heavy 2: not shown
# light: B1 light
# notes: He Ab; copies: 1 + 1 + 2
# B21: GpH7-A5/GpH7-B3 variant Y300_09D/GpL16-k0 (antibody, human IgG1, kappa)
# heavy 1: not shown
# heavy 2: not shown
# light: B1 light
# notes: He Ab; copies: 1 + 1 + 2
# B22: GpH7-A5/GpH7-B3 variant Y296_08L/GpL16-k0 (antibody, human IgG1, kappa)
# heavy 1: not shown
# heavy 2: not shown
# light: B1 light
# notes: He Ab; copies: 1 + 1 + 2
# B23: GpH7-A5/GpH7-B3 variant V266_06M/GpL16-k0 (antibody, human IgG1, kappa)
# heavy 1: not shown
# heavy 2: not shown
# light: B1 light
# notes: He Ab; copies: 1 + 1 + 2
# B24: GpH7-A5/GpH7-B3 variant Y296_03V/GpL16-k0 (antibody, human IgG1, kappa)
# heavy 1: not shown
# heavy 2: not shown
# light: B1 light
# notes: He Ab; copies: 1 + 1 + 2
# B25: GpH7-A5/GpH7-B3 variant Y300_06M/GpL16-k0 (antibody, human IgG1, kappa)
# heavy 1: not shown
# heavy 2: not shown
# light: B1 light
# notes: He Ab; copies: 1 + 1 + 2
# B26: GpH7-A5/GpH7-B3 variant S324_15Y/GpL16-k0 (antibody, human IgG1, kappa)
# heavy 1: not shown
# heavy 2: not shown
# light: B1 light
# notes: He Ab; copies: 1 + 1 + 2
# B27: GpH7-A5/GpH7-B3 variant Y300_08L/GpL16-k0 (antibody, human IgG1, kappa)
# heavy 1: not shown
# heavy 2: not shown
# light: B1 light
# notes: He Ab; copies: 1 + 1 + 2
# B28: GpH7-A5/GpH7-B3 variant S324_16H/GpL16-k0 (antibody, human IgG1, kappa)
# heavy 1: not shown
# heavy 2: not shown
# light: B1 light
# notes: He Ab; copies: 1 + 1 + 2
# Target: T1, FcγRIIIa extracellular domain, C-terminal His tag (human, UniProt P08637 17-208)
# T1 construct: extracellular domain; also called 3a
# T1 sequence (P08637 other isoform, or with tags, fused parts or gaps): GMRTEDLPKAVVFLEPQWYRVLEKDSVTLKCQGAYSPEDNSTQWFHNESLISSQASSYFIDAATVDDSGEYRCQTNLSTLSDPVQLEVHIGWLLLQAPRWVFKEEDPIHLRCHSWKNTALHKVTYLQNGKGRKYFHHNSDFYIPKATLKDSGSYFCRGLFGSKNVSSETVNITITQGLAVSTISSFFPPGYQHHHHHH
# Assay: SPR, binding activity relative to GpH7-A5/GpH7-B3/GpL16-k0 (=100)
row,He/Con 3a [%],Binder
1,62.7,B1
2,50,B2
3,76.8,B3
4,58.1,B4
5,117,B5
6,71.4,B6
7,80.3,B7
8,106,B8
9,110,B9
10,70.6,B10
11,99.3,B11
12,101,B12
13,90.2,B13
14,103,B14
15,113,B15
16,67.9,B16
17,79.5,B17
18,96.2,B18
19,56.8,B19
20,114,B20
21,104,B21
22,72.4,B22
23,84.9,B23
24,69.1,B24
25,106,B25
26,110,B26
27,114,B27
28,113,B28
